“And” between values parts separate entries of the source, which are not always exact repeats. Identical values can stand only once.
Experiments:
human OCT1*1 (wild-type) [1] = target: T1, human OCT1*1 (wild-type) (Homo sapiens, UniProt O15245); assay: Concentration-dependent uptake (transport kinetics) in HEK293 cells overexpressing OCT1 wild-type; details: for Clint (±SEM): intrinsic clearance = ratio of Vmax and KM, OCT1 wild-type
T1 sequence (O15245 1-554): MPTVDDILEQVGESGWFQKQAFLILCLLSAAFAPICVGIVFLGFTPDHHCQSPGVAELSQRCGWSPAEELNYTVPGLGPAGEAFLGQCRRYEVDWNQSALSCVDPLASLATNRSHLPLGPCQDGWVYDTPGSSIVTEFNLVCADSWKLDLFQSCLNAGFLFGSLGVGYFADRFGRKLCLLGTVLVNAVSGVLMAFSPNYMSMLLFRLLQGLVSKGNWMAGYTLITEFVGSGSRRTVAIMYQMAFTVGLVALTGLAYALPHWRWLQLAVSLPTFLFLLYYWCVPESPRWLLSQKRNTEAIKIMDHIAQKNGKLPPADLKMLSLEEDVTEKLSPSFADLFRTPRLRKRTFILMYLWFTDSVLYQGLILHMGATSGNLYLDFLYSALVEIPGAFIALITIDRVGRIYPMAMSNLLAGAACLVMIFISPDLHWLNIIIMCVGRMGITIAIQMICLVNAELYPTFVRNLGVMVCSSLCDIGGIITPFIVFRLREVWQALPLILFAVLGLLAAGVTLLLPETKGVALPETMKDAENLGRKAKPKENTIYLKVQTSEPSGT

OCT1 (wild-type, OCT1*1) = OCT1 (wild-type, OCT1*1) (Homo sapiens, UniProt O15245); assay: as above; details: human, HEK293 cells stably overexpressing human OCT1*1 (wild-type), pH 7.4, KM (±SEM), net uptake (OCT1 minus empty vector), HEK293, 0.1-1000 µM substrate, Michaelis–Menten
OCT3 = target: T2, OCT3 (Homo sapiens, UniProt O75751); assay: Cellular uptake ratio, OCT3-overexpressing HEK293 cells vs empty vector; type: cell-based; details: for OCT3 transport category: based on ratio uptake data at 1 µM
T2 construct: expressed in transfected cells; host or cells: HEK293, stably transfected; gift from Dr. Koepsell and Dr. Gorbulev (University of Würzburg)
T2 sequence (O75751 1-556): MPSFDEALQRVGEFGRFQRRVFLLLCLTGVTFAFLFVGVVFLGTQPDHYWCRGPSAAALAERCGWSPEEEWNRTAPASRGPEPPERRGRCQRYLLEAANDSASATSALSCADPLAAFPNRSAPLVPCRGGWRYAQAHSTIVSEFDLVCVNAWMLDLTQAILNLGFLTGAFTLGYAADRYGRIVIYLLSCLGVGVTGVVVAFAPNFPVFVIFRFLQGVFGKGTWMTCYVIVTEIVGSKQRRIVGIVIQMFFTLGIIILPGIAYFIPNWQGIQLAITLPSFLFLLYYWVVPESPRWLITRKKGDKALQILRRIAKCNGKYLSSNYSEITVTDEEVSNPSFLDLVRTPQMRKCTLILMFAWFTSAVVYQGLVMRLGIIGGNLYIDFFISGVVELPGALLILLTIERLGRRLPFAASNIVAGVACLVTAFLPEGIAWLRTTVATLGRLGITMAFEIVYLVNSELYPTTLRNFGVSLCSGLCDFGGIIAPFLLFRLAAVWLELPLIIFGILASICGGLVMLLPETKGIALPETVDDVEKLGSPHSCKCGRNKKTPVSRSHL
Description: (§1) The wild-type cell lines of OCT1 and OCT2, as well as the variant cell lines OCT1*2 and *3, were generated using the Flp-In system (Thermo Fisher Scientific, Darmstadt, Germany) as described in previous publications. The cell line overexpressing OCT3 was a kind gift from Dr. Koepsell and Dr. Gorbulev (University of Würzburg, Germany). Cells transfected with the empty pcDNA5/FRT vector were used for the transport experiments as a control cell line. All cells were cultured approximately up to passage 30.
(§2) Forty-eight hours before the transport experiments, 600,000 cells were plated on 12-well plates pre-coated with poly-D-lysine and incubated at 37 °C with 5% CO2. The prepared 12-well plate with cells was positioned on a heating plate pre-warmed to 37 °C. After removing the medium, the cells were washed with 37 °C HBSS+ (10 mM HEPES in Hank’s balanced salt solution, pH 7.4). Then, one pre-defined concentration of a substrate was added to each well. The incubation period was stopped by adding 2 mL of 4 °C HBSS+ and removing the cells from the heating plate. The cells were washed twice with 4 °C HBSS+. For cell lysis, the cells were incubated for 15 min with 500 µL of 80% acetonitrile (LGC Standards, Wesel, Germany), which contained a respective internal standard (Table 1).
(§3) For concentration-dependent transport, the cells were incubated with defined substrate concentrations (0.1, 1, 10, 30, 100, 300, 600, 1000 µM) for the respective pre-defined incubation times. […] The uptake by a transporter was normalised to the uptake by empty vector-transfected cells. […] The results of transport experiments were normalized to the total protein concentration per well. Total protein quantification was performed using a bicinchoninic acid assay with bovine serum albumin as standard.
(§4) The ratios of cellular uptake were calculated by dividing the total uptake of transporter-overexpressing cells by the total uptake into empty vector transfected cells. The concentration-dependent cellular net uptake was used for analysis of transport kinetics by subtracting for each substrate concentration the uptake of empty vector-transfected cells from the uptake of transporter-overexpressing cells. […] The intrinsic clearance Clint was expressed with the ratio of Vmax and KM.

wild-type human OCT2 = target: T3, wild-type human OCT2 (Homo sapiens, UniProt O15244); assay: Cellular uptake ratio, OCT2-overexpressing HEK293 cells vs empty vector; type: cell-based; details: based on ratio uptake data at 1 µM
T3 sequence (O15244 1-555): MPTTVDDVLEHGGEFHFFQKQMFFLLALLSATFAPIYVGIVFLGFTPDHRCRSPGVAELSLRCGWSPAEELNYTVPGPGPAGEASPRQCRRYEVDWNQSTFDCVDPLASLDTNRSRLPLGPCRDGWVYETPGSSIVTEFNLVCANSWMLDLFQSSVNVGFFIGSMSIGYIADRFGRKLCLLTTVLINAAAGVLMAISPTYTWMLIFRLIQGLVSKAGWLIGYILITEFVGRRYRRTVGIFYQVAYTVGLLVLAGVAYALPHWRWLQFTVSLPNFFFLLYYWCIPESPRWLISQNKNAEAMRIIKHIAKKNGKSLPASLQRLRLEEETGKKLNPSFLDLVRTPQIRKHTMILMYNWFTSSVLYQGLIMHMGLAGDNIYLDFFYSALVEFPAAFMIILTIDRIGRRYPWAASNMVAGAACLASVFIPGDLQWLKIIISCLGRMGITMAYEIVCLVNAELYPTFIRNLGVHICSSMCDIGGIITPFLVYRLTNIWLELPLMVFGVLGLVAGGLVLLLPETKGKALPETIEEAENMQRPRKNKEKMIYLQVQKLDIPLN
Description: as §1, §2, §3, §4

human OCT1*1 (wild-type) [2] = target: T1, human OCT1*1 (wild-type); assay: Cellular uptake ratio, OCT1-overexpressing HEK293 cells vs empty vector; type: cell-based; details: for OCT1 transport category: based on ratio uptake data at 1 µM
Description: as §1, §2, §3, §4

[3] = Human pharmacokinetic background values; type: in vivo; details: blood, conversion of the KM of about 60 µM, read-out: blood concentration corresponding to KM
[4] = human; no reference given; cited from earlier work
hCMEC/D3 = details: BBB-representing cell line hCMEC/D3; cited from earlier work
[5] = substrate: Nc1nc2c(ncn2COCCO)c(=O)[nH]1; assay: cells, lysate or membranes; details: other: net uptake (OCT1 minus empty vector), HEK293, 0.1-1000 µM substrate, Michaelis–Menten; pH 7.4
[6] = substrate: Nc1nc(=O)n([C@@H]2CS[C@H](CO)O2)cc1F; assay: cells, lysate or membranes; details: other: net uptake (OCT1 minus empty vector), HEK293, 0.1-1000 µM substrate, Michaelis–Menten; pH 7.4
[7] = substrate: N=C(N)c1ccc(OCCCCCOc2ccc(C(=N)N)cc2)cc1; assay: cells, lysate or membranes; details: other: net uptake (OCT1 minus empty vector), HEK293, 0.1-1000 µM substrate, Michaelis–Menten; pH 7.4
[8] = substrate: C[N+]1(C)CCC[C@H]1C(=O)[O-]; assay: cells, lysate or membranes; details: other: net uptake (OCT1 minus empty vector), HEK293, 0.1-1000 µM substrate, Michaelis–Menten; pH 7.4
[9] = substrate: C[C@H]1COc2c(N3CCN(C)CC3)c(F)cc3c(=O)c(C(=O)O)cn1c23; assay: cells, lysate or membranes; details: other: net uptake (OCT1 minus empty vector), HEK293, 0.1-1000 µM substrate, Michaelis–Menten; pH 7.4
[10] = substrate: Nc1ccn([C@@H]2CS[C@H](CO)O2)c(=O)n1; assay: cells, lysate or membranes; details: other: net uptake (OCT1 minus empty vector), HEK293, 0.1-1000 µM substrate, Michaelis–Menten; pH 7.4
[11] = substrate: N[C@@H](Cc1ccc(O)c(O)c1)C(=O)O; assay: cells, lysate or membranes; details: other: net uptake (OCT1 minus empty vector), HEK293, 0.1-1000 µM substrate, Michaelis–Menten; pH 7.4
[12] = substrate: Nc1ccn([C@H]2CC[C@@H](CO)O2)c(=O)n1; assay: cells, lysate or membranes; details: other: net uptake (OCT1 minus empty vector), HEK293, 0.1-1000 µM substrate, Michaelis–Menten; pH 7.4
[13] = substrate: COc1cc(Cc2cnc(N)nc2N)cc(OC)c1OC; assay: cells, lysate or membranes; details: other: net uptake (OCT1 minus empty vector), HEK293, 0.1-1000 µM substrate, Michaelis–Menten; pH 7.4
[14] = substrate: CNS(=O)(=O)Cc1ccc2[nH]cc(CCN(C)C)c2c1; assay: cells, lysate or membranes; details: other: net uptake (OCT1 minus empty vector), HEK293, 0.1-1000 µM substrate, Michaelis–Menten; pH 7.4
[15] = substrate: C[C@](N)(Cc1ccc(O)c(O)c1)C(=O)O; assay: cells, lysate or membranes; details: other: net uptake (OCT1 minus empty vector), HEK293, 0.1-1000 µM substrate, Michaelis–Menten; pH 7.4
[16] = substrate: CCCCC[C@H](O)/C=C/[C@H]1[C@H](O)CC(=O)[C@@H]1C/C=C\CCCC(=O)O; assay: cells, lysate or membranes; details: pH 7.4
[17] = other: net uptake (OCT1 minus empty vector), HEK293, 0.1-1000 µM substrate, Michaelis–Menten

## CNC(=C[N+](=O)[O-])NCCSCc1ccc(CN(C)C)o1 [Ranitidin, ranitidine]
Human OCT1*1 (wild-type) [1]; net uptake (OCT1 minus empty vector), HEK293, 0.1-1000 µM substrate, Michaelis–Menten
  Vmax (±SEM): 1047 ± 123 pmol/mg Protein/min
OCT1 (wild-type, OCT1*1)
  Km: 54.5 ± 7.2 µM
OCT3
  OCT3 transport category: 0 (no transport by OCT1, OCT2, and OCT3 occurred (i.e., no kinetic parameters or uptake ratio <2 without significance))
wild-type human OCT2
  OCT2 transport category: + (good substrates of OCTs when the intrinsic clearance is between 5–15 or the ratio is 2–10)
Human OCT1*1 (wild-type) [2]
  OCT1 transport category: ++ (very good substrates of OCTs that have an intrinsic clearance >15 or show an uptake ratio >10)

## CNS(=O)(=O)Cc1ccc2[nH]cc(CCN(C)C)c2c1 [Sumatriptan, sumatriptan]
Human OCT1*1 (wild-type) [1]
  Clint (±SEM): 36.8 ± 7.32 µL/mg Protein/min
[3]
  Km: ~17.8 µg/mL
OCT3; 1 µM substance
  uptake by OCT3 (normalised to empty vector): relevant uptake
OCT3
  OCT3 transport category: + (good substrates of OCTs when the intrinsic clearance is between 5–15 or the ratio is 2–10)
wild-type human OCT2
  OCT2 transport category: ++ (very good substrates of OCTs that have an intrinsic clearance >15 or show an uptake ratio >10)
[4]
  typical human maximum blood concentration: about 30 µg/L
Human OCT1*1 (wild-type) [2]; 1 µM and 100 µM substance
  uptake ratio by OCT1 (normalised to empty vector): up to 30
Human OCT1*1 (wild-type) [2]
  OCT1 transport category: ++ (very good substrates of OCTs that have an intrinsic clearance >15 or show an uptake ratio >10)

## Nc1nnc(-c2cccc(Cl)c2Cl)c(N)n1 [Lamotrigine, lamotrigine]
Human OCT1*1 (wild-type) [1]
  Clint (±SEM): 2.77 ± 5.66 µL/mg Protein/min
OCT3
  OCT3 transport category: +/− (poor transport with a Clint < 5 or ratio between 1–2 with statistical significance (p < 0.05))
hCMEC/D3
  Km: 62 µM

B1: human OCT1*1 (wild-type) (Homo sapiens) (protein)
chain: T1 sequence (O15245 1-554)
[5]
  Km: 142 ± 189 µM
[6]
  Km: 1123 ± 335 µM
  Vmax: 0.0069 µmol/min/mg
  Vmax/Km: 6.15 µL/min/mg
[7]
  Km: 124 ± 136 µM
[8]
  Km: 881 ± 910 µM
[9]
  Km: 3.326 ± 1.458 mM
[10]
  Km: 232 ± 43.0 µM
[11]
  Km: 363 ± 163 µM
[12]
  Km: 1194 ± 193 µM
  Vmax: 0.00307 µmol/min/mg
  Vmax/Km: 2.57 µL/min/mg
[13]
  Km: 4.78 ± 1.24 µM
[14]
  Km: 60 µM and 58.9 ± 5.1 µM
  Vmax: 0.00217 µmol/min/mg
  Vmax/Km: 36.8 µL/min/mg
[15]
  Km: 647 ± 335.6 µM
  Vmax: 0.00384 µmol/min/mg
  Vmax/Km: 5.94 µL/min/mg
[16]; other: OCT1 wild-type, rounded in discussion
  Km: 1 mM
[16]; [17]
  Km: 1.177 ± 0.744 mM
  Vmax: 0.00412 µmol/min/mg
  Vmax/Km: 3.5 µL/min/mg
